Reference: patent US20040082496

Legend:
[1] = tested on: T1, Mca-Ala-Pro-(Dnp)Lys-OH (AnaSpec MIPH1)
T1 sequence: APK

[2] = tested on: T2, Mca-Tyr-Val-Ala-Asp-Ala-Pro-(Dnp)Lys-OH (Caspase 1 substrate, Bachem M-2195)
T2 sequence: YVADAPK

Neurotensin (1-13) = Neurotensin (1-13) (UniProt P30990)
[3] = tested on: T1, Mca-Ala-Pro-(Dnp)Lys-OH (AnaSpec MIPH1); experiment: fluorogenic substrate cleavage by purified ACE-2, microtitre plate
[4] = tested on: T2, Mca-Tyr-Val-Ala-Asp-Ala-Pro-(Dnp)Lys-OH (Caspase 1 substrate, Bachem M-2195); experiment: as above

secreted ACE-2 purified from CHO K1 cell supernatant (expression vector pMD37)
hydrolysis followed by mass spectroscopy ((Des-Arg^9) Bradykinin): ACE-2 can hydrolyze des-Arg bradykinin
hydrolysis followed by mass spectroscopy (Angiotensin I(1-10)): When treated with ACE-2, mass spectroscopy data shows that Angiotensin I (1-10) is converted to Angiotensin I (1-9)
kcat/Km [1]: 230000 M⁻¹ s⁻¹
hydrolysis followed by mass spectroscopy [2]: ACE-2 hydrolysed this substance between the P1 proline and P1′ (DNP)Lys
kcat/Km [2]: 42000 M⁻¹ s⁻¹
hydrolysis followed by mass spectroscopy (Neurotensin (1-13)): ACE-2 hydrolyzes Neurotensin (1-13) to Neurotensin (1-12)
Km [3]: 340 µM
Km [4]: 130 µM
